T1: hBCMA (human BCMA) (Homo sapiens, UniProt Q02223)
T1 sequence (Q02223 1-184): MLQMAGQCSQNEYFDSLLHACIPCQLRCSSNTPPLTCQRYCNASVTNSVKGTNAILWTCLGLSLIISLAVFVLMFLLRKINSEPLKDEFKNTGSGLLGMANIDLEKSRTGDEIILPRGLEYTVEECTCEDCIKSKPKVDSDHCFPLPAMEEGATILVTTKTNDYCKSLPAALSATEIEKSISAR


Experiments:
[1] = target: T1, hBCMA (human BCMA); test: Kinetics and affinity of hBCMA/human IgG interactions by SPR (Bio-Rad Proteon XPR36); format: binding; conditions: human BCMA, 37° C.
Outline: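 Anti-BCMA IgGs were amine-coupled to a GLC chip, and hBCMA analyte was injected as a single-cycle kinetic titration (0.08, 0.4, 2, 10, 50 nM; 2 min each) at 37° C. or 25° C. in HBS-T+ pH 7.4 with 1 mg/mL BSA. Dissociation was followed 2 hours, with double-referenced 1:1 Langmuir-plus-mass-transport fitting.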

[2] = target: Cyno BCMA; test: Kinetics and affinity of cyno BCMA/human IgG interactions by SPR (Bio-Rad Proteon XPR36); format: binding, cynomolgus; conditions: 37° C.

| Molecule | Kd [1] [nM] | ka Human [1] [M⁻¹ s⁻¹] | kd Human [1] [s⁻¹] | Kd [2] [nM] | ka Cyno [2] [M⁻¹ s⁻¹] | kd Cyno [2] [s⁻¹] |
| --- | --- | --- | --- | --- | --- | --- |
| A02_Rd4_6 nM_C08: anti-BCMA antibody (antibody, V domains shown) VH: EVQLLESGGGLVQPGGSLRLSCAASGFTFSSYAMNWVRQAPGKGLEWVSAILDSGGSTYYADSVKGRFTISRDNSKNTLYLQMNSLRAEDTAVYYCARYWPMSPWGQGTLVTVSS VL: EIVLTQSPGTLSLSPGERATLSCRASQSVSFLYLAWYQQKPGQAPRLLMYDASIRATGIPDRFSGSGSGTDFTLTISRLEPEDFAVYYCQQYGSWPLTFGQGTKVEIK | 0.188 | 3.92e+06 | 0.000738 | 5.07 | 2.23e+06 | 0.0113 |
| P5C1_VHVL: anti-BCMA antibody (antibody, V domains shown) VH: EVQLLESGGGLVQPGGSLRLSCAASGFTFSSYPMSWVRQAPGKGLEWVSAIGGSGGSTYYADSVKGRFTISRDNSKNTLYLQMNSLRAEDTAVYYCARYWPMDSWGQGTLVTVSS VL: EIVLTQSPGTLSLSPGERATLSCRASQSVSSTYLAWYQQKPGQAPRLLIYDASSRAPGIPDRFSGSGSGTDFTLTISRLEPEDFAVYYCQQYSTSPLTFGQGTKVEIK | – | 1.16e+07 | 0.0692 | – | 3.53e+06 | 0.0538 |
| C01_Rd4_6 nM_C24: anti-BCMA antibody (antibody, V domains shown) VH: EVQLLESGGGLVQPGGSLRLSCAASGFTFSSYPMSWVRQAPGKGLEWVSAIGGSGGSLPYADSVKGRFTISRDNSKNTLYLQMNSLRAEDTAVYYCARYWPMDSWGQGTLVTVSS VL: EIVLTQSPGTLSLSPGERATLSCRASQSVSPEYLAWYQQKPGQAPRLLIYDASSRAPGIPDRFSGSGSGTDFTLTISRLEPEDFAVYYCQQYSVWPLTFGQGTKVEIK | – | 7.47e+06 | 0.00348 | – | 3.17e+06 | 0.000891 |
| C01_Rd4_6 nM_C26: anti-BCMA antibody (antibody, V domains shown) VH: EVQLLESGGGLVQPGGSLRLSCAASGFTFSSYPMSWVRQAPGKGLEWVSAIGGSGGSLPYADSVKGRFTISRDNSKNTLYLQMNSLRAEDTAVYYCARYWPMDSWGQGTLVTVSS VL: EIVLTQSPGTLSLSPGERATLSCRASQSVSALYLAWYQQKPGQAPRLLIYDASSRAPGIPDRFSGSGSGTDFTLTISRLEPEDFAVYYCQQYSAWPLTFGQGTKVEIK | – | 1.5e+07 | 0.00136 | – | 4.75e+06 | 0.00199 |
| C01_Rd4_6 nM_C10: anti-BCMA antibody (antibody, V domains shown) VH: EVQLLESGGGLVQPGGSLRLSCAASGFTFSSYPMSWVRQAPGKGLEWVSAIGGSGGSLPYADSVKGRFTISRDNSKNTLYLQMNSLRAEDTAVYYCARYWPMDSWGQGTLVTVSS VL: EIVLTQSPGTLSLSPGERATLSCRASQSVSSVYLAWYQQKPGQAPRLLIYDASSRAPGIPDRFSGSGSGTDFTLTISRLEPEDFAVYYCQQYSTWPLTFGQGTKVEIK | – | 1.31e+07 | 0.00212 | – | 4.44e+06 | 0.00219 |
| C01_Rd4_0.6 nM_C27: anti-BCMA antibody (antibody, V domains shown) VH: EVQLLESGGGLVQPGGSLRLSCAASGFTFSSYPMSWVRQAPGKGLEWVSAIGGSGGSLPYADSVKGRFTISRDNSKNTLYLQMNSLRAEDTAVYYCARYWPMDSWGQGTLVTVSS VL: EIVLTQSPGTLSLSPGERATLSCRASQSVSSTYLAWYQQKPGQAPRLLIYDASSRAPGIPDRFSGSGSGTDFTLTISRLEPEDFAVYYCQQYSRWPLTFGQGTKVEIK | – | 1.23e+07 | 0.00374 | – | 3.34e+06 | 0.00285 |
| C01_Rd4_6 nM_C20: anti-BCMA antibody (antibody, V domains shown) VH: EVQLLESGGGLVQPGGSLRLSCAASGFTFSSYPMSWVRQAPGKGLEWVSAIGGSGGSLPYADSVKGRFTISRDNSKNTLYLQMNSLRAEDTAVYYCARYWPMDSWGQGTLVTVSS VL: EIVLTQSPGTLSLSPGERATLSCRASQSVSPLYLAWYQQKPGQAPRLLIYDASSRAPGIPDRFSGSGSGTDFTLTISRLEPEDFAVYYCQQYSAFPLTFGQGTKVEIK | – | 6.02e+06 | 0.00276 | – | 3.6e+06 | 0.00625 |
| C01_Rd4_0.6 nM_C16: anti-BCMA antibody (antibody, V domains shown) VH: EVQLLESGGGLVQPGGSLRLSCAASGFTFSSYPMSWVRQAPGKGLEWVSAIGGSGGSLPYADSVKGRFTISRDNSKNTLYLQMNSLRAEDTAVYYCARYWPMDSWGQGTLVTVSS VL: EIVLTQSPGTLSLSPGERATLSCRASQSVSSTYLAWYQQKPGQAPRLLIYDASSRAPGIPDRFSGSGSGTDFTLTISRLEPEDFAVYYCQQYSSWPLTFGQGTKVEIK | – | 1.55e+07 | 0.0063 | – | 4.95e+06 | 0.00464 |
| C01_Rd4_0.6 nM_C09: anti-BCMA antibody (antibody, V domains shown) VH: EVQLLESGGGLVQPGGSLRLSCAASGFTFSSYPMSWVRQAPGKGLEWVSAIGGSGGSLPYADSVKGRFTISRDNSKNTLYLQMNSLRAEDTAVYYCARYWPMDSWGQGTLVTVSS VL: EIVLTQSPGTLSLSPGERATLSCRASQSVSSLFLAWYQQKPGQAPRLLIYDASSRAPGIPDRFSGSGSGTDFTLTISRLEPEDFAVYYCQQYSAWPLTFGQGTKVEIK | – | 1.51e+07 | 0.00825 | – | 5.28e+06 | 0.00936 |
| C01_Rd4_6 nM_C09: anti-BCMA antibody (antibody, V domains shown) VH: EVQLLESGGGLVQPGGSLRLSCAASGFTFSSYPMSWVRQAPGKGLEWVSATVGSGGSIGYADSVKGRFTISRDNSKNTLYLQMNSLRAEDTAVYYCARYWPMDSWGQGTLVTVSS VL: EIVLTQSPGTLSLSPGERATLSCACSQSVSSTYLAWYQQKPGQAPRLLIYDASSRAPGIPDRFSGSGSGTDFTLTISRLEPEDFAVYYCQQYSAWPLTFGQGTKVEIK | – | 1.58e+07 | 0.0128 | – | 3.73e+06 | 0.00868 |
| C01_Rd4_0.6 nM_C03: anti-BCMA antibody (antibody, V domains shown) VH: EVQLLESGGGLVQPGGSLRLSCAASGFTFSSYPMSWVRQAPGKGLEWVSAIGGSGGSLPYADSVKGRFTISRDNSKNTLYLQMNSLRAEDTAVYYCARYWPMDSWGQGTLVTVSS VL: EIVLTQSPGTLSLSPGERATLSCRASCDVSSTYLAWYQQKPGQAPRLLIYDASSRAPGIPDRFSGSGSGTDFTLTISRLEPEDFAVYYCQQYMRSPLTFGQGTKVEIK | – | 1.55e+07 | 0.015 | – | 4.72e+06 | 0.0119 |
| C01_Rd4_0.6 nM_C06: anti-BCMA antibody (antibody, V domains shown) VH: EVQLLESGGGLVQPGGSLRLSCAASGFTFSSYPMSWVRQAPGKGLEWVSAIGGSGGSLPYADSVKGRFTISRDNSKNTLYLQMNSLRAEDTAVYYCARYWPMDSWGQGTLVTVSS VL: EIVLTQSPGTLSLSPGERATLSCRASEAVPSTYLAWYQQKPGQAPRLLIYDASSRAPGIPDRFSGSGSGTDFTLTISRLEPEDFAVYYCQQYSAFPLTFGQGTKVEIK | – | 1.82e+07 | 0.0154 | – | 6.22e+06 | 0.0121 |
| C01_Rd4_6 nM_C04: anti-BCMA antibody (antibody, V domains shown) VH: EVQLLESGGGLVQPGGSLRLSCAASGFTFSSYPMSWVRQAPGKGLEWVSAIGGSGGSLPYADSVKGRFTISRDNSKNTLYLQMNSLRAEDTAVYYCARYWPMDSWGQGTLVTVSS VL: EIVLTQSPGTLSLSPGERATLSCCSSQSVSSTYLAWYQQKPGQAPRLLIYDASSRAPGIPDRFSGSGSGTDFTLTISRLEPEDFAVYYCQQYSAFPLTFGQGTKVEIK | – | 2.33e+07 | 0.0497 | – | 6.34e+06 | 0.0327 |
| COMBO_Rd4_6 nM_C21: anti-BCMA antibody (antibody, V domains shown) VH: EVQLLESGGGLVQPGGSLRLSCAASGFTFSSYPMSWVRQAPGKGLEWVSAIGGSGGSLPYADSVKGRFTISRDNSKNTLYLQMNSLRAEDTAVYYCARYWPMDSWGQGTLVTVSS VL: EIVLTQSPGTLSLSPGERATLSCRASQSVSAAYLAWYQQKPGQAPRLLMYDASIRATGIPDRFSGSGSGTDFTLTISRLEPEDFAVYYCQQYMCWPLTFGQGTKVEIK | – | 1.17e+07 | 7.34e-05 | – | 3.17e+06 | 0.000248 |
| COMBO_Rd4_6 nM_C10: anti-BCMA antibody (antibody, V domains shown) VH: EVQLLESGGGLVQPGGSLRLSCAASGFTFSSYPMSWVRQAPGKGLEWVSAIGGSGGSIHYADSVKGRFTISRDNSKNTLYLQMNSLRAEDTAVYYCARYWPMDSWGQGTLVTVSS VL: EIVLTQSPGTLSLSPGERATLSCRASQSVSSSYWGWYQQKPGQAPRLLMYDASIRATGIPDRFSGSGSGTDFTLTISRLEPEDFAVYYCQQYQCWPLTFGQGTKVEIK | – | 5.47e+06 | 9.72e-05 | – | 1.52e+06 | 0.00016 |
